# Test results: patent US20140087995A1 (published 2014)
# Changes are numbered by the printed parent chain. Numbered stars: 1 amine (or outer) side, 2 acyl side, 3 side chain; on linkers, the order of the positions; unused ones are H or OH. Bridge positions count the residues as written; N and C are the ends. Side chains are listed from the residue outwards. Ends that are not written are not given here. * marks the point of attachment. C20 diacid = O=C(O)CCCCCCCCCCCCCCCCCCC(=O)*; γGlu = O=C(O)[C@H](CCC(=O)[*:2])N[*:1]; AEEA = NCCOCCOCC(=O)O
# T1: human amylin receptor (amylin 3(a) receptor: human calcitonin receptor with RAMP-3) (human, UniProt P30988 25-474; O60896 24-148)
# T1 construct: whole, on cells; also called hAmylin-R; hAmylinR
# T1 sequence (looked up) 1: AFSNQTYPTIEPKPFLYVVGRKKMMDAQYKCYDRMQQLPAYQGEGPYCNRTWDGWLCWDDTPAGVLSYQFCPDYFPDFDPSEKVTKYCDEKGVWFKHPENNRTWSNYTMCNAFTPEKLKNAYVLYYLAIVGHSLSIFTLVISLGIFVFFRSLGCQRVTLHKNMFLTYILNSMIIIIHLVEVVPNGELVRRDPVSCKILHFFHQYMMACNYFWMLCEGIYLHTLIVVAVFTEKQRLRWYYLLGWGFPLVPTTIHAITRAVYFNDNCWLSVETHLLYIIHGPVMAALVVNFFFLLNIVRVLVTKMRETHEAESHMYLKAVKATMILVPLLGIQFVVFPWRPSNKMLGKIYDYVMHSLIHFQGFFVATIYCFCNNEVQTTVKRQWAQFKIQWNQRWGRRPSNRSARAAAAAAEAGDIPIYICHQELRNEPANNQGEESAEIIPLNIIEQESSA
# T1 sequence (looked up) 2: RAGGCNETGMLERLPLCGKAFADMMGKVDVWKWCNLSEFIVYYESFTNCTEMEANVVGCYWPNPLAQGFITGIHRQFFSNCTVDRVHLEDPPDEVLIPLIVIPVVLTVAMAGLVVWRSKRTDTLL
# T2: human calcitonin receptor (human, UniProt P30988 25-474)
# T2 sequence (looked up): T1 sequence (looked up) 1
# T3: human amylin 3(a) receptor (human calcitonin receptor co-expressed with RAMP-3) (human, UniProt P30988 25-474; O60896 24-148, limits assumed)
# T3 sequence (looked up) 1: T1 sequence (looked up) 1
# T3 sequence (looked up) 2: T1 sequence (looked up) 2
# B1: N^ε1-[(4S)-4-carboxy-4-(19-carboxynonadecanoylamino)butanoyl]-[Arg17,Pro21,Pro27]-h-amylin (peptide)
# peptide: K([γGlu-C20 diacid])CNTATCATQRLANFLRHSSPNFGAIPSSTNVGSNTY-NH2
# modifications: disulfide 2-7; N-terminus assumed
# SMILES: CC[C@H](C)[C@H](NC(=O)[C@H](C)NC(=O)CNC(=O)[C@H](Cc1ccccc1)NC(=O)[C@H](CC(N)=O)NC(=O)[C@@H]1CCCN1C(=O)[C@H](CO)NC(=O)[C@H](CO)NC(=O)[C@H](Cc1c[nH]cn1)NC(=O)[C@H](CCCNC(=N)N)NC(=O)[C@H](CC(C)C)NC(=O)[C@H](Cc1ccccc1)NC(=O)[C@H](CC(N)=O)NC(=O)[C@H](C)NC(=O)[C@H](CC(C)C)NC(=O)[C@H](CCCNC(=N)N)NC(=O)[C@H](CCC(N)=O)NC(=O)[C@@H](NC(=O)[C@H](C)NC(=O)[C@@H]1CSSC[C@H](NC(=O)[C@@H](N)CCCCNC(=O)CC[C@H](NC(=O)CCCCCCCCCCCCCCCCCCC(=O)O)C(=O)O)C(=O)N[C@@H](CC(N)=O)C(=O)N[C@@H]([C@@H](C)O)C(=O)N[C@@H](C)C(=O)N[C@@H]([C@@H](C)O)C(=O)N1)[C@@H](C)O)C(=O)N1CCC[C@H]1C(=O)N[C@@H](CO)C(=O)N[C@@H](CO)C(=O)N[C@H](C(=O)N[C@@H](CC(N)=O)C(=O)N[C@H](C(=O)NCC(=O)N[C@@H](CO)C(=O)N[C@@H](CC(N)=O)C(=O)N[C@H](C(=O)N[C@@H](Cc1ccc(O)cc1)C(N)=O)[C@@H](C)O)C(C)C)[C@@H](C)O
# notes: also called 48; compound 48
# B2: N^ε1-[(4S)-4-carboxy-4-[[(4S)-4-carboxy-4-(19-carboxynonadecanoylamino)butanoyl]amino]butanoyl]-[Asp14,Arg17,Pro21,Pro27,Arg35]-h-amylin (peptide)
# peptide: K([γGlu-γGlu-C20 diacid])CNTATCATQRLADFLRHSSPNFGAIPSSTNVGSRTY-NH2
# modifications: disulfide 2-7; N-terminus assumed
# SMILES: CC[C@H](C)[C@H](NC(=O)[C@H](C)NC(=O)CNC(=O)[C@H](Cc1ccccc1)NC(=O)[C@H](CC(N)=O)NC(=O)[C@@H]1CCCN1C(=O)[C@H](CO)NC(=O)[C@H](CO)NC(=O)[C@H](Cc1c[nH]cn1)NC(=O)[C@H](CCCNC(=N)N)NC(=O)[C@H](CC(C)C)NC(=O)[C@H](Cc1ccccc1)NC(=O)[C@H](CC(=O)O)NC(=O)[C@H](C)NC(=O)[C@H](CC(C)C)NC(=O)[C@H](CCCNC(=N)N)NC(=O)[C@H](CCC(N)=O)NC(=O)[C@@H](NC(=O)[C@H](C)NC(=O)[C@@H]1CSSC[C@H](NC(=O)[C@@H](N)CCCCNC(=O)CC[C@H](NC(=O)CC[C@H](NC(=O)CCCCCCCCCCCCCCCCCCC(=O)O)C(=O)O)C(=O)O)C(=O)N[C@@H](CC(N)=O)C(=O)N[C@@H]([C@@H](C)O)C(=O)N[C@@H](C)C(=O)N[C@@H]([C@@H](C)O)C(=O)N1)[C@@H](C)O)C(=O)N1CCC[C@H]1C(=O)N[C@@H](CO)C(=O)N[C@@H](CO)C(=O)N[C@H](C(=O)N[C@@H](CC(N)=O)C(=O)N[C@H](C(=O)NCC(=O)N[C@@H](CO)C(=O)N[C@@H](CCCNC(=N)N)C(=O)N[C@H](C(=O)N[C@@H](Cc1ccc(O)cc1)C(N)=O)[C@@H](C)O)C(C)C)[C@@H](C)O
# notes: also called compound 52
# B3: N^α1-[2-[2-[2-[[2-[2-[2-[[(4S)-4-carboxy-4-(19-carboxynonadecanoylamino)butanoyl]amino]ethoxy]ethoxy]acetyl]amino]ethoxy]ethoxy]acetyl]-[Glu14,Arg17,Pro21,Pro27 … (peptide)
# peptide: KCNTATCATQRLAEFLRHSSPNFGAIPSSTNVGSNTY
# modifications: alpha-amino group of N-terminal Lys1 acylated with C20 diacid via linker gGlu-2xOEG; disulfide bridge Cys2-Cys7 and C-terminal amide as in human amylin
# notes: also called compound 19
# B4: N^ε1-[2-[2-[2-[[(4S)-4-carboxy-4-(19-carboxynonadecanoylamino)butanoyl]amino]ethoxy]ethoxy]acetyl]-[Ala14,Arg17,Pro21,Pro27,Pro31]-h-amylin (peptide)
# peptide: K([AEEA-γGlu-C20 diacid])CNTATCATQRLAAFLRHSSPNFGAIPSSTPVGSNTY-NH2
# modifications: disulfide 2-7; N-terminus assumed
# SMILES: CC[C@H](C)[C@H](NC(=O)[C@H](C)NC(=O)CNC(=O)[C@H](Cc1ccccc1)NC(=O)[C@H](CC(N)=O)NC(=O)[C@@H]1CCCN1C(=O)[C@H](CO)NC(=O)[C@H](CO)NC(=O)[C@H](Cc1c[nH]cn1)NC(=O)[C@H](CCCNC(=N)N)NC(=O)[C@H](CC(C)C)NC(=O)[C@H](Cc1ccccc1)NC(=O)[C@H](C)NC(=O)[C@H](C)NC(=O)[C@H](CC(C)C)NC(=O)[C@H](CCCNC(=N)N)NC(=O)[C@H](CCC(N)=O)NC(=O)[C@@H](NC(=O)[C@H](C)NC(=O)[C@@H]1CSSC[C@H](NC(=O)[C@@H](N)CCCCNC(=O)COCCOCCNC(=O)CC[C@H](NC(=O)CCCCCCCCCCCCCCCCCCC(=O)O)C(=O)O)C(=O)N[C@@H](CC(N)=O)C(=O)N[C@@H]([C@@H](C)O)C(=O)N[C@@H](C)C(=O)N[C@@H]([C@@H](C)O)C(=O)N1)[C@@H](C)O)C(=O)N1CCC[C@H]1C(=O)N[C@@H](CO)C(=O)N[C@@H](CO)C(=O)N[C@H](C(=O)N1CCC[C@H]1C(=O)N[C@H](C(=O)NCC(=O)N[C@@H](CO)C(=O)N[C@@H](CC(N)=O)C(=O)N[C@H](C(=O)N[C@@H](Cc1ccc(O)cc1)C(N)=O)[C@@H](C)O)C(C)C)[C@@H](C)O
# notes: also called compound 72
# B5: N^ε1-[2-[2-[2-[[(4S)-4-carboxy-4-(19-carboxynonadecanoylamino)butanoyl]amino]ethoxy]ethoxy]acetyl]-[Arg14,Arg17,Pro21,Pro27,Pro31]-h-amylin (peptide)
# peptide: K([AEEA-γGlu-C20 diacid])CNTATCATQRLARFLRHSSPNFGAIPSSTPVGSNTY-NH2
# modifications: disulfide 2-7; N-terminus assumed
# SMILES: CC[C@H](C)[C@H](NC(=O)[C@H](C)NC(=O)CNC(=O)[C@H](Cc1ccccc1)NC(=O)[C@H](CC(N)=O)NC(=O)[C@@H]1CCCN1C(=O)[C@H](CO)NC(=O)[C@H](CO)NC(=O)[C@H](Cc1c[nH]cn1)NC(=O)[C@H](CCCNC(=N)N)NC(=O)[C@H](CC(C)C)NC(=O)[C@H](Cc1ccccc1)NC(=O)[C@H](CCCNC(=N)N)NC(=O)[C@H](C)NC(=O)[C@H](CC(C)C)NC(=O)[C@H](CCCNC(=N)N)NC(=O)[C@H](CCC(N)=O)NC(=O)[C@@H](NC(=O)[C@H](C)NC(=O)[C@@H]1CSSC[C@H](NC(=O)[C@@H](N)CCCCNC(=O)COCCOCCNC(=O)CC[C@H](NC(=O)CCCCCCCCCCCCCCCCCCC(=O)O)C(=O)O)C(=O)N[C@@H](CC(N)=O)C(=O)N[C@@H]([C@@H](C)O)C(=O)N[C@@H](C)C(=O)N[C@@H]([C@@H](C)O)C(=O)N1)[C@@H](C)O)C(=O)N1CCC[C@H]1C(=O)N[C@@H](CO)C(=O)N[C@@H](CO)C(=O)N[C@H](C(=O)N1CCC[C@H]1C(=O)N[C@H](C(=O)NCC(=O)N[C@@H](CO)C(=O)N[C@@H](CC(N)=O)C(=O)N[C@H](C(=O)N[C@@H](Cc1ccc(O)cc1)C(N)=O)[C@@H](C)O)C(C)C)[C@@H](C)O
# notes: also called compound 64
# B6: N^ε1-[2-[2-[2-[[2-[2-[2-[[(4S)-4-carboxy-4-(19-carboxynonadecanoylamino)butanoyl]amino]ethoxy]ethoxy]acetyl]amino]ethoxy]ethoxy]acetyl]-[Arg17,Pro21,Pro27,Glu35 … (peptide)
# peptide: K([AEEA-AEEA-γGlu-C20 diacid])CNTATCATQRLANFLRHSSPNFGAIPSSTNVGSETY-NH2
# modifications: disulfide 2-7; N-terminus assumed
# SMILES: CC[C@H](C)[C@H](NC(=O)[C@H](C)NC(=O)CNC(=O)[C@H](Cc1ccccc1)NC(=O)[C@H](CC(N)=O)NC(=O)[C@@H]1CCCN1C(=O)[C@H](CO)NC(=O)[C@H](CO)NC(=O)[C@H](Cc1c[nH]cn1)NC(=O)[C@H](CCCNC(=N)N)NC(=O)[C@H](CC(C)C)NC(=O)[C@H](Cc1ccccc1)NC(=O)[C@H](CC(N)=O)NC(=O)[C@H](C)NC(=O)[C@H](CC(C)C)NC(=O)[C@H](CCCNC(=N)N)NC(=O)[C@H](CCC(N)=O)NC(=O)[C@@H](NC(=O)[C@H](C)NC(=O)[C@@H]1CSSC[C@H](NC(=O)[C@@H](N)CCCCNC(=O)COCCOCCNC(=O)COCCOCCNC(=O)CC[C@H](NC(=O)CCCCCCCCCCCCCCCCCCC(=O)O)C(=O)O)C(=O)N[C@@H](CC(N)=O)C(=O)N[C@@H]([C@@H](C)O)C(=O)N[C@@H](C)C(=O)N[C@@H]([C@@H](C)O)C(=O)N1)[C@@H](C)O)C(=O)N1CCC[C@H]1C(=O)N[C@@H](CO)C(=O)N[C@@H](CO)C(=O)N[C@H](C(=O)N[C@@H](CC(N)=O)C(=O)N[C@H](C(=O)NCC(=O)N[C@@H](CO)C(=O)N[C@@H](CCC(=O)O)C(=O)N[C@H](C(=O)N[C@@H](Cc1ccc(O)cc1)C(N)=O)[C@@H](C)O)C(C)C)[C@@H](C)O
# notes: also called compound 25
# B7: N^α1-[(4S)-4-carboxy-4-(19-carboxynonadecanoylamino)butanoyl]-[Arg17,Pro21,Pro27,His34]-h-amylin (peptide)
# peptide: B3 peptide with E14N, S34H
# modifications: alpha-amino group of N-terminal Lys1 acylated with C20 diacid via linker gGlu; disulfide bridge Cys2-Cys7 and C-terminal amide as in human amylin
# notes: also called compound 40
# Target: T1, human amylin receptor (amylin 3(a) …)
# Assay: SPA displacement of 125I-rat amylin, hAmylin 3(a) receptor membranes
# How it was run: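 Membranes from BHK Amylin 3(a)/CRE-luc cells (35 ng/μL final) were mixed with SPA beads and test compounds in 50 mM Hepes pH 7.4 with 1 mM CaCl2, 5 mM MgCl₂, 0.1% OA and 0.02% Tween20. Incubation ran 120 min at 25° C with shaking; IC₅₀ came from one-site competition fitting.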
row,Binder,IC50 [nM]
1,B1,0.443

# Target: T2, human calcitonin receptor
# Assay: cell-based or functional assay
row,Binder,hCTR funct. EC50 [nM]
1,B2,14.1

# Target: T3, human amylin 3(a) receptor (human …)
# Assay: cell-based or functional assay
Binder,Ratio hCT/hAmylin funct. (hCTR EC50 over hAmylin-R EC50),hAmylin-R funct. EC50 (pM)
B3,17.4,307
B4,44.9,106
B5,60.7,378
B6,46.2,217
B7,16.4,164
